Reference: patent publication US20040176301A1 (CYCLACEL, published 2004)
Read-outs that look alike come from different tables or passages of the source. Blank lines part the entries; values can stand above or below the binder they belong to. Square brackets hold non-standard residues; d marks the D form. Phe(4-F) = N[C@@H](Cc1ccc(F)cc1)C(=O)O; hSer = N[C@@H](CCO)C(=O)O; Nle = CCCC[C@H](N)C(=O)O; Abu = CC[C@H](N)C(=O)O

Columns and labels:
Test in all cases: cell-based or functional assay
[1] = target: recombinant CDK2/cyclin A (UniProt P20248 1-432; P24941 1-298)
CDK2/cyclin A [2] = target: T1, CDK2/cyclin A (UniProt P24941 1-298; P20248 1-432)
CDK2/cyclin A [3] = target: T1, CDK2/cyclin A; remark: listed apart in the source
CDK2/cyclin A complex = CDK2/cyclin A complex (UniProt P24941 1-298; P20248 1-432)
CDK2/cyclin A [4] = target: T1, CDK2/cyclin A; remark: listed apart in the source
CDK2/cyclin A [5] = target: T1, CDK2/cyclin A; remark: listed apart in the source

B1: Ac-Arg-Arg-Leu-Asn-Phe-NH2 (peptide)
peptide: Ac-RRLNF-NH2
Kinase IC50 (µM) CyclinA/CDK2 [1]: 37.2 µM

B2: H-Ala-Ala-Lys-Gln-Arg-Leu-Ile-pFPhe-NH2 (peptide)
peptide: H-AAKQRLI[Phe(4-F)]-NH2
SMILES: CC[C@H](C)[C@H](NC(=O)[C@H](CC(C)C)NC(=O)[C@H](CCCNC(=N)N)NC(=O)[C@H](CCC(N)=O)NC(=O)[C@H](CCCCN)NC(=O)[C@H](C)NC(=O)[C@H](C)N)C(=O)N[C@@H](Cc1ccc(F)cc1)C(N)=O
Relative activity, Kinase Inhibition (CDK2/cyclin A kinase assay, pRb substrate, [ATP] = 100 µM) (CDK2/cyclin A [2]): 4 relative to H-His-Ala-Lys-Arg-Arg-Leu-Ile-Phe-NH2 (=1)

B3: H-His-Ala-Leu-Arg-Arg-Leu-Ile-Phe-NH2 (peptide)
peptide: H-HALRRLIF-NH2
Relative activity, Kinase Inhibition (CDK2/cyclin A kinase assay, pRb substrate, [ATP] = 100 µM) (CDK2/cyclin A [3]): 0.1 relative to H-His-Ala-Lys-Arg-Arg-Leu-Ile-Phe-NH2 (=1)

B4: H-His-Ala-Ala-Arg-Arg-Leu-Ile-Phe-NH2 (peptide)
peptide: H-HAARRLIF-NH2
Relative activity, Kinase Inhibition (CDK2/cyclin A kinase assay, pRb substrate, [ATP] = 100 µM) (CDK2/cyclin A [3]): < 0.1 relative to H-His-Ala-Lys-Arg-Arg-Leu-Ile-Phe-NH2 (=1)

B5: H-His-Ala-Abu-Arg-Arg-Leu-Ile-Phe-NH2 (peptide)
peptide: H-HA[Abu]RRLIF-NH2
SMILES: CC[C@H](NC(=O)[C@H](C)NC(=O)[C@@H](N)Cc1c[nH]cn1)C(=O)N[C@@H](CCCNC(=N)N)C(=O)N[C@@H](CCCNC(=N)N)C(=O)N[C@@H](CC(C)C)C(=O)N[C@H](C(=O)N[C@@H](Cc1ccccc1)C(N)=O)[C@@H](C)CC
Relative activity, Kinase Inhibition (CDK2/cyclin A kinase assay, pRb substrate, [ATP] = 100 µM) (CDK2/cyclin A [3]): 0.8 relative to H-His-Ala-Lys-Arg-Arg-Leu-Ile-Phe-NH2 (=1)

B6: H-Ala-Lys-Arg-Arg-Leu-Ile-pFPhe-NH2 (peptide)
peptide: AKRRLIX
modifications: pFPhe (p-fluorophenylalanine) at position 7; C-terminal amide (-NH2)
Relative activity, Kinase Inhibition (CDK2/cyclin A kinase assay, pRb substrate, [ATP] = 100 µM) (CDK2/cyclin A [2]): 4 relative to H-His-Ala-Lys-Arg-Arg-Leu-Ile-Phe-NH2 (=1)

B8: H-His-Ala-Lys-Arg-Ala-Leu-Ile-Phe-NH2 (peptide)
peptide: H-HAKRALIF-NH2
Relative activity, Kinase Inhibition (CDK2/cyclin A kinase assay, pRb substrate, [ATP] = 100 µM) (CDK2/cyclin A [4]): < 0.1 relative to H-His-Ala-Lys-Arg-Arg-Leu-Ile-Phe-NH2 (=1)

B11: H-Dab-Ala-Lys-Arg-Arg-Leu-Ile Phe-NH2 (peptide)
peptide: XAKRRLIF
modifications: Dab (diaminobutyric acid) at position 1; C-terminal amide
Relative activity, CDK2/cyclin A kinase inhibition (pRb substrate) (CDK2/cyclin A complex): 5 relative to HAKRRLIF-NH2

B14: H-His-Ala-Lys-Hse-Arg-Leu-Ile-Phe-NH2 (peptide)
peptide: H-HAK[hSer]RLIF-NH2
SMILES: CC[C@H](C)[C@H](NC(=O)[C@H](CC(C)C)NC(=O)[C@H](CCCNC(=N)N)NC(=O)[C@H](CCO)NC(=O)[C@H](CCCCN)NC(=O)[C@H](C)NC(=O)[C@@H](N)Cc1c[nH]cn1)C(=O)N[C@@H](Cc1ccccc1)C(N)=O
Relative activity, Kinase Inhibition (CDK2/cyclin A kinase assay, pRb substrate, [ATP] = 100 µM) (CDK2/cyclin A [5]): < 0.1 relative to H-His-Ala-Lys-Arg-Arg-Leu-Ile-Phe-NH2 (=1)

B15: H-His-Ala-Lys-Gln-Arg-Leu-Ile-Phe-NH2 (peptide)
peptide: H-HAKQRLIF-NH2
Relative activity, Kinase Inhibition (CDK2/cyclin A kinase assay, pRb substrate, [ATP] = 100 µM) (CDK2/cyclin A [5]): < 0.1 relative to H-His-Ala-Lys-Arg-Arg-Leu-Ile-Phe-NH2 (=1)

B16: H-His-Ala-Arg-Arg-Arg-Leu-Ile-Phe-NH2 (peptide)
peptide: H-HARRRLIF-NH2
Relative activity, Kinase Inhibition (CDK2/cyclin A kinase assay, pRb substrate, [ATP] = 100 µM) (CDK2/cyclin A [3]): 5.7 relative to H-His-Ala-Lys-Arg-Arg-Leu-Ile-Phe-NH2 (=1)

Continued, values first:

Relative activity, CDK2/cyclin A kinase inhibition (pRb substrate) (CDK2/cyclin A complex): 2 relative to HAKRRLIF-NH2
B7: H-Thi-Ala-Lys-Arg-Arg-Leu-Ile Phe-NH2 (peptide)
peptide: XAKRRLIF
modifications: Thi (2-thienylalanine) at position 1; C-terminal amide

Relative activity, CDK2/cyclin A kinase inhibition (pRb substrate) (CDK2/cyclin A complex): 3 relative to HAKRRLIF-NH2
B9: H-Phe-Ala-Lys-Arg-Arg-Leu-Ile Phe-NH2 (peptide)
peptide: H-FAKRRLIF-NH2

Relative activity, Kinase Inhibition (CDK2/cyclin A kinase assay, pRb substrate, [ATP] = 100 µM) (CDK2/cyclin A [3]): 0.3 relative to H-His-Ala-Lys-Arg-Arg-Leu-Ile-Phe-NH2 (=1)
B10: H-His-Ala-Nle-Arg-Arg-Leu-Ile-Phe-NH2 (peptide)
peptide: H-HA[Nle]RRLIF-NH2
SMILES: CCCC[C@H](NC(=O)[C@H](C)NC(=O)[C@@H](N)Cc1c[nH]cn1)C(=O)N[C@@H](CCCNC(=N)N)C(=O)N[C@@H](CCCNC(=N)N)C(=O)N[C@@H](CC(C)C)C(=O)N[C@H](C(=O)N[C@@H](Cc1ccccc1)C(N)=O)[C@@H](C)CC

Relative activity, Kinase Inhibition (CDK2/cyclin A kinase assay, pRb substrate, [ATP] = 100 µM) (CDK2/cyclin A [5]): 0.8 relative to H-His-Ala-Lys-Arg-Arg-Leu-Ile-Phe-NH2 (=1)
B12: H-His-Ala-Lys-Lys-Arg-Leu-Ile-Phe-NH2 (peptide)
peptide: H-HAKKRLIF-NH2

Relative activity, CDK2/cyclin A kinase inhibition (pRb substrate) (CDK2/cyclin A complex): 2 relative to HAKRRLIF-NH2
B13: H-Hse-Ala-Lys-Arg-Arg-Leu-Ile Phe-NH2 (peptide)
peptide: XAKRRLIF
modifications: Hse (homoserine) at position 1; C-terminal amide
